According to patent US20240182911A1 (University of California, published 2024):
Numbering of substitutions follows the chain as printed. Like-named read-outs stand apart in the source and are kept apart here.

Assays:
[1] = molecular target: T1, receptor-binding domain (RBD) of the SARS-COV-2 spike (S) protein (SARS-COV-2, UniProt P0DTC2 319-541); assay: SPR kinetic
[2] = molecular target: T1, receptor-binding domain (RBD) of the …; assay: SPR kinetic; remark: listed apart in the source
[3] = molecular target: T1, receptor-binding domain (RBD) of the …; assay: monovalent affinity, assay not named
[4] = molecular target: T1, receptor-binding domain (RBD) of the …; assay: SPR kinetic; remark: listed apart in the source
[5] = molecular target: T1, receptor-binding domain (RBD) of the …; assay: SPR equilibrium
[6] = molecular target: T1, receptor-binding domain (RBD) of the …; assay: SPR equilibrium; remark: listed apart in the source
[7] = molecular target: T1, receptor-binding domain (RBD) of the …; assay: SPR equilibrium; affinity measurement note: Saturation not reached
[8] = molecular target: T1, receptor-binding domain (RBD) of the …; assay: On-yeast EC50
[9] = molecular target: T1, receptor-binding domain (RBD) of the …; assay: SPR equilibrium; remark: listed apart in the source

B1: RBD1i1 (VHH)
VHH: QVQLQESGGGLVQAGGSLRLSCAASGTISYENFMGWYRQAPGKERKLVAGINDGTNTYYADSVKGRFTISRDNAKNTVYLQMNSLKPEDTAVYYCAVIGASVLGHAYWGQGTQVTVSS
**Q.** Which Kd [1] does the source give for B1 here?
**A.** 48.1 nM

**Q.** And the koff [1]?
**A.** 0.0023 s⁻¹

**Q.** What about the kon [1] of the same binder?
**A.** 47700 M⁻¹ s⁻¹

B2: RBD1 (VHH)
VHH: B1 VHH with K46E, A100T
**Q.** For B2, which Kd [1] is on record?
**A.** 1400 nM

**Q.** And the koff [1]?
**A.** 0.0221 s⁻¹

**Q.** And the kon [1]?
**A.** 15800 M⁻¹ s⁻¹

B3: RBD1i13 (VHH)
VHH: B1 VHH with E44G, K86E
**Q.** Which results are given for B3?
**A.** Kd [1]: 32.2 nM; koff [1]: 0.00216 s⁻¹; kon [1]: 67200 M⁻¹ s⁻¹

B4: RBD10i10 (VHH)
VHH: QVQLQESGGGLVQAGGSLRLSCAASGTIFQVGSMGWYRQAPGKGRKFVATIADGGSTNYAGSVKGRFTISRDNAKNTVYLQMNSLKPEDTAVYYCAALGQVSEYNSASYEWTYPYWGQGTQVTVSS
**Q.** Which results are given for B4?
**A.** Kd [2]: 2.14 nM; kon [2]: 154000 M⁻¹ s⁻¹

B5: RBD10 (VHH)
VHH: B4 VHH with G44E, K46E, G55S, G61D
**Q.** How did the Kd [2] turn out when B5 was run?
**A.** 417 nM

**Q.** What about the koff [2] of the same binder?
**A.** 0.00552 s⁻¹

**Q.** And the kon [2]?
**A.** 13200 M⁻¹ s⁻¹

B6: RBD10i14 (VHH)
VHH: B4 VHH with M34V, G55S
**Q.** How did the Kd [3] turn out when B6 was run?
**A.** 0.72 nM

**Q.** And the koff [2]?
**A.** 0.000118 s⁻¹

**Q.** What about the kon [2] of the same binder?
**A.** 167000 M⁻¹ s⁻¹

B7: RBD6i10 (VHH)
VHH: QVQLQESGGGLVQAGGSLRLNCAASGSISTTYLMGWYRQAPGKERKFVATINRGGSTYYAVSVKGRFTISRDNAKNTVYLQMNSLKPEDTAVYYCAVGWPDPDYGLAYHRYWGQGTQVTVNS
**Q.** Which results are given for B7?
**A.** Kd [4]: 597 nM; koff [4]: 0.00568 s⁻¹; kon [4]: 9500 M⁻¹ s⁻¹

B8: RBD6id (VHH)
VHH: B7 VHH with S25N, K46E, V61I, N121S
**Q.** B8 was tested. Which Kd [4] did it give?
**A.** 263 nM

**Q.** And the koff [4]?
**A.** 0.00271 s⁻¹

**Q.** And the kon [4]?
**A.** 10300 M⁻¹ s⁻¹

B9: RBD6 (VHH)
VHH: B7 VHH with N21S, K46E, V61D, N121S
**Q.** How did the Kd [1] turn out when B9 was run?
**A.** 990 nM

**Q.** What about the koff [1] of the same binder?
**A.** 0.00892 s⁻¹

**Q.** What about the kon [1] of the same binder?
**A.** 9010 M⁻¹ s⁻¹

B10: RBD6i13 (VHH)
VHH: B7 VHH with D103G
**Q.** B10 was tested. Which Kd [5] did it give?
**A.** 558 nM

B11: RBD3i2 (VHH)
VHH: QAQLQESGGGLVQAGGSLRLSCAASGNISDFRFMGWYRQAPGKERELVAAIGRGSNTRYADSVKGRFTISRDNAKNTVYLQMNSLKPEDTAVYYCAARNATYPYYVYWGQGTQVTVSS
**Q.** For B11, which Kd [6] is on record?
**A.** 128 nM

B12: RBD3 (VHH)
VHH: B11 VHH with A2V, R58Y
**Q.** B12 was tested. Which Kd [7] did it give?
**A.** 6000 nM

B13: RBD3i17 (VHH)
VHH: B11 VHH with Y59C
**Q.** Which Kd [6] does the source give for B13 here?
**A.** 230 nM

B14: RBD9 (VHH)
VHH: QVQLQESGGGLVQAGGSLRLSCAASGYIFYSRRMGWYRQAPGKEREFVATIGHGTSTYYADSVKGRFTISRDNAKNTVYLQMNSLKPEDTAVYYCAALPRPHGAGTADARYNLWYWGQGTQVTVSS
**Q.** Which EC50 [8] does the source give for B14 here?
**A.** 131 nM

B15: RBD9i10 (VHH)
VHH: B14 VHH with T55A, D61G, N83D
**Q.** B15 was tested. Which EC50 [8] did it give?
**A.** 15.2 nM

B16: RBD8 (VHH)
VHH: QVQLQESGGGLVQAGGSLRLSCAASGTIFGGPWMGWYRQAPGKEREFVAAIARGGNTNYADSVKGRFTISRDNAKNTVYLQMNSLKPEDTAVYYCAARDAVYPYLKYWGQGTQVTVSS
**Q.** For B16, which EC50 [8] is on record?
**A.** 80.8 nM

B17: RBD8i1 (VHH)
VHH: B16 VHH with F29S
**Q.** B17 was tested. Which EC50 [8] did it give?
**A.** 35.4 nM

B18: RBD11 (VHH)
VHH: QVQLQESGGGLVQAGGSLRLSCAASGNIFAKVWMGWYRQAPGKEREFVASIANGATTYYADSVKGRFTISRDNAKNTVYLQMNSLKPEDTAVYYCAARNWSGLGHFYWGQGTQVTVSS
**Q.** With B18 as the binder, how does the Kd [9] read?
**A.** 2420 nM

B19: RBD11i12 (VHH)
VHH: B18 VHH with E44G, H105Y, G109S
**Q.** Which Kd [9] does the source give for B19 here?
**A.** 316 nM

B20: RBD7i12 (VHH)
VHH: QVQLQESGGGLVQAGGSLRLSCAASGYISGAYYMGWYRQAPGKEREFVAGIGGGSTNYADSVKGRFTISRDNAKNTVYLQMNSLKPEDTAVYYCAVYQSVAYYCRGYFSYWGQGTQVTVSS
**Q.** With B20 as the binder, how does the Kd [5] read?
**A.** 2590 nM

B21: RBD7 (VHH)
VHH: B20 VHH with C104Y
**Q.** For B21, which Kd [5] is on record?
**A.** 2210 nM

B22: RBD7i13 (VHH)
VHH: B20 VHH with E46K
**Q.** How did the Kd [5] turn out when B22 was run?
**A.** 659 nM
